Assay results: doi:10.1101/2024.12.20.629533

Target: VgrS (residues 81-729), Salmonella Typhimurium VgrG (Salmonella enterica serovar Typhimurium)
Assay: crystal structure

VgrS (residues 81-729), Salmonella Typhimurium VgrG (domain or fragment)
stoichiometry N: 3
